Reference: patent publication US20120213763A1 (COUNCIL OF SCIENTIFIC AND INDUSTRIAL RESEARCH, published 2012)
“And” between values parts separate entries of the source, which are not always exact repeats. Identical values can stand only once.

Experiments:
[1] = molecular target: PEG Variants of SEQ ID NO 22 (PEGylated Cysteine variants of fibrin domain fusion form of SK)
[2] = molecular target: PEG Variants of SEQ ID NO 23 (PEGylated Cysteine variants of fibrin domain fusion form of SK)
[3] = molecular target: T1, PEGylated SK C-Cys (SEQ ID NO 490), Cys at C + 1 position in SK
T1 chain: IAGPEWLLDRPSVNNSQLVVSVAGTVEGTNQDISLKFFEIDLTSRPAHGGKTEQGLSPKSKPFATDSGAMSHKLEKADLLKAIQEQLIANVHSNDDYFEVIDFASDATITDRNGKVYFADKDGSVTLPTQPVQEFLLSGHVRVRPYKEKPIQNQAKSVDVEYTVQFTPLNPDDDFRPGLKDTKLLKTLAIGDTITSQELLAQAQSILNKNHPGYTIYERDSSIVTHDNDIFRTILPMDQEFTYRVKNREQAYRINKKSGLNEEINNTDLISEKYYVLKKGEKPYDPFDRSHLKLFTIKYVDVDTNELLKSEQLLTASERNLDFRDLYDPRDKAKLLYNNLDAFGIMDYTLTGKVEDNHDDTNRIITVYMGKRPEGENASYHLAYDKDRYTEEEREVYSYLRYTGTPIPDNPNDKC

[4] = molecular target: T2, PEGylated SK D96C (SEQ ID NO 31)
T2 chain: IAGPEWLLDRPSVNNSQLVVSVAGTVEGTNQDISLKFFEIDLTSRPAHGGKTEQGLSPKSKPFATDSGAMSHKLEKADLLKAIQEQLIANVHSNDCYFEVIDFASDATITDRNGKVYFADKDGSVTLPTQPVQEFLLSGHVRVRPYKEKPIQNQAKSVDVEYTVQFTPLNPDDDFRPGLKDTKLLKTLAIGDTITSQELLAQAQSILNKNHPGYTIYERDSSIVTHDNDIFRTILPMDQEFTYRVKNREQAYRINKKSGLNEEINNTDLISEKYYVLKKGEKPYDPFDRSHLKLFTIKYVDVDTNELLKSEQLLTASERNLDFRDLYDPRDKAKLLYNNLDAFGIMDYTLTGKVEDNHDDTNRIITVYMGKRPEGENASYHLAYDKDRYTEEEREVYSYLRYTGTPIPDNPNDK

[5] = molecular target: T3, PEGylated SK N-Cys (SEQ ID NO 489), Cys at N - 1 position in SK
T3 chain: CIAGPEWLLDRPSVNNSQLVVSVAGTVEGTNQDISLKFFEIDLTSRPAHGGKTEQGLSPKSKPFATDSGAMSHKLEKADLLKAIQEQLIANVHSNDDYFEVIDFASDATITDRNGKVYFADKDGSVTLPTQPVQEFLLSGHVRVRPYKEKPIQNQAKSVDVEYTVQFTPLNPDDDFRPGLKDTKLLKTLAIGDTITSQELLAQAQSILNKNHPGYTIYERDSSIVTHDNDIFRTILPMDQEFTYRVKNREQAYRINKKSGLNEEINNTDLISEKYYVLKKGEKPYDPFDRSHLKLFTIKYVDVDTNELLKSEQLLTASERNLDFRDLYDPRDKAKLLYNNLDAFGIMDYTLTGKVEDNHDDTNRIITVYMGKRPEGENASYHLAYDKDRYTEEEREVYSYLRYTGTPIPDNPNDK

[6] = molecular target: T4, PEGylated SK Ser 258 Cys (SEQ ID NO 49)
T4 chain: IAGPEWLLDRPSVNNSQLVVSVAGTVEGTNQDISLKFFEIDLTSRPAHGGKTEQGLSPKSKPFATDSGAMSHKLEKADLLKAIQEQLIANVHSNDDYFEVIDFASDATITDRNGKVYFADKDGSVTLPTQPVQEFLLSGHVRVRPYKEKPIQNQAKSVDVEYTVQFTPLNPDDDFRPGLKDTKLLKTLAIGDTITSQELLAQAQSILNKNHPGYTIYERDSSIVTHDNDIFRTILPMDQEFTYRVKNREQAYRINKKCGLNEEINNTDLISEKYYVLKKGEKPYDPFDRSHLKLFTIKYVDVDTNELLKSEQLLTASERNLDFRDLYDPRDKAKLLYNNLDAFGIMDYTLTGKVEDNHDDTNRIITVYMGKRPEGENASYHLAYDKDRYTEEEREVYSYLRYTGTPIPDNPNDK

B1: human plasminogen (HPG) (protein)
chain: KVYLSECKTGNGKNYRGTMSKTKNGITCQKWSSTSPHRPRFSPATHPSEGLEENYCRNPDNDPQGPWCYTTDPEKRYDYCDILECEEECMHCSGENYDGKISKTMSGLECQAWDSQSPHAHGYIPSKFPNKNLKKNYCRNPDRELRPWCFTTDPNKRWELCDIPRCTTPPPSSGPTYQCLKGTGENYRGNVAVTVSGHTCQHWSAQTPHTHNRTPENFPCKNLDENYCRNPDGKRAPWCHTTNSQVRWEYCKIPSCDSSPVSTEQLAPTAPPELTPVVQDCYHGDGQSYRGTSSTTTTGKKCQSWSSMTPHRHQKTPENYPNAGLTMNYCRNPDADKGPWCFTTDPSVRWEYCNLKKCSGTEASVVAPPPVVLLPDVETPSEEDCMFGNGKGYRGKRATTVTGTPCQDWAAQEPHRHSIFTPETNPRAGLEKNYCRNPDGDVGGPWCYTTNPRKLYDYCDVPQCAAPSFDCGKPQVEPKKCPGRVVGGCVAHPHSWPWQVSLRTRFGMHFCGGTLISPEWVLTAAHCLEKSPRPSSYKVILGAHQEVNLEPHVQEIEVSRLFLEPTRKDIALLKLSSPAVITDKVIPACLPSPNYVVADRTECFITGWGETQGTFGAGLLKEAQLPVIENKVCNRYEFLNGRVQSTELCAGHLAGGTDSCQGDSGGPLVCFEKDKYILQGVTSWGLGCARPNKPGVYVRVSRFVTWIEGVMRNN
With B1 the Km [1] was 0.25 µM and 0.6 µM, the Km [2] was 0.24 µM and 0.63 µM and the Km [3] was 0.4 µM. It also gave a Km [4] of 0.5 µM, a Km [5] of 0.4 µM and a Km [6] of 0.5 µM.
